This note sets out measurements from patent US20210017289A1 (AbbVie / Abbott, published 2021).

As usually defined, the EC50 is the midpoint of the concentration-response curve.

Experiment [1] deals with T1, human OX40-FC (R&D Systems) (human, UniProt P43489 29-216).
T1 construct: Purchased reagent; also called recombinant human OX40; not shown: Fc part of the purchased fusion
T1 sequence: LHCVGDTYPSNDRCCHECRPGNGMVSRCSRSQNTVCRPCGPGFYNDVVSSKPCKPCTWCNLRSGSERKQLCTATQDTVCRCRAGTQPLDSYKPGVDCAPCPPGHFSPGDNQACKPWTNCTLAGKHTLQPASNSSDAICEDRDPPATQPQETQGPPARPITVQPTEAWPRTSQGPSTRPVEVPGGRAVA
Description: ELISA on plates coated with human OX40-Fc. On the procedure: Immunolon 4×HB 96-well plates (Thermo Scientific) were coated with 1 μg/mL of human OX40-FC (R&D Systems) at 4° C. overnight. Plates were blocked with phosphate-buffered saline (PBS) containing 1% bovine serum albumin (BSA) for 30 minutes at room temperature and then washed three times with PBST (PBS with 0.1% Tween 20) using a plate washer. OX40-coated plates were then incubated with indicated concentrations of test antibody at room temperature for one hour. Plates were washed four times with PBST and then incubated for 1 hour at room temperature with 100 μL of goat anti-human Fab fragment specific-Biotin (Jackson ImmunoResearch) prepared to a dilution of 1:5000 in PBS containing 1% BSA. Plates were then washed five times in PBST and 100 μL of a 1:1000 dilution of streptavidin-horseradish peroxidase (HRP) (Thermo Scientific) was added to each well and incubated for 30 minutes at room temperature. Plates were subsequently washed five times in PBST and 100 μL of TMB One component (Surmodics) were added to each well and incubated at room temperature (RT) until color developed (approximately 5-10 minutes). Optical density (OD) was read at 650 nm (Molecular Devices Spectromax190).
On the technique in general: In an ELISA, binding on a coated surface is turned into a signal by an enzyme label.

A further experiment deals with T2, Cyno OX40-Fc fusion (cynomolgus monkey, UniProt P43489 29-214 (human entry), limits assumed).
T2 construct: also called recombinant cynomolgus (cyno) OX40; not shown: Fc part of the fusion
T2 chain: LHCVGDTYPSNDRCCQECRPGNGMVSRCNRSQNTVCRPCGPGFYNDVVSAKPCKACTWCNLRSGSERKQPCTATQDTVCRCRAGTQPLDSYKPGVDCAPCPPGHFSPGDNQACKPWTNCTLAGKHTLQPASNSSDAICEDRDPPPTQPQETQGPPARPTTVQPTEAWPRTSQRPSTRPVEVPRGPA
Briefly: ELISA on plates coated with Cyno OX40-Fc fusion. As for the experimental part:
Immunolon 4×HB 96-well plates (Thermo Scientific) were coated with 1 μg/mL of Cyno OX40-Fc fusion at 4° C. overnight. Plates were blocked with PBS containing 1% bovine serum albumin (BSA) for 30 minutes at RT and then washed three times with PBST (PBS with 0.1% Tween 20). OX40-coated plates were then incubated with indicated concentrations of anti-OX40 antibody at room temperature for one hour. Plates were washed four times with PBST and then incubated for 1 hour at room temperature with 100 μL of goat anti-human FAB fragment specific-Biotin (Jackson ImmunoResearch) prepared to a dilution of 1:5000 in PBS containing 1% BSA. Plates were then washed five times in PBST and 100 μL of a 1:1000 dilution of streptavidin-HRP (Thermo Scientific) was added to each well and incubated for 30 minutes at room temperature. Plates were then washed five times in PBST and 100 μL of TMB One component (Surmodics) were added to each well and incubated at room temperature until color developed (approximately 5-10 minutes). Optical density (OD) was read at 650 nm (Molecular Devices Spectromax190).

The target of the next experiment is T3, 293s-huOX40-muCRDIII.
T3 construct: cell-surface chimera, named on the sheet by its cell line; also called human OX40 chimera with murine CRDIII replacing human CRDIII
T3 receptor chain: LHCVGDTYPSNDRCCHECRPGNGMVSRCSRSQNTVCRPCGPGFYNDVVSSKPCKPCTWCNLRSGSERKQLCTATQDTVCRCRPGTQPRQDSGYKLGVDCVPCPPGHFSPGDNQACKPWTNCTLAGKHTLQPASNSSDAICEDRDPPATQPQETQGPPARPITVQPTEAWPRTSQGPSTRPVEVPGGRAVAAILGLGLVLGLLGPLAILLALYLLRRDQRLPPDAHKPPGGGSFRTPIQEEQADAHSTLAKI
Briefly: flow cytometry on 293s transfectants, Hu3738 added at 2 µg/mL, Cy5 donkey anti-human IgG. On the procedure: (§1) After plating cells, 50 μL of Hu3738 or isotype control antibody at 2 μg/mL were added to corresponding wells in duplicate for each cell line and allowed to incubate on ice for 30 minutes. Following incubation, 200 μL of Dulbecco's Phosphate Buffered Saline (DPBS) was added into each well and plates were spun down at 1000 rpm for three minutes. Supernatants from each well were removed and 50 μL of Cy5-Donkey anti-Human IgG (Jackson ImmunoResearch) secondary antibody was added at a 1:250 dilution, which was then incubated for 30 minutes on ice in the dark. Following the incubation period, 200 μL of DPBS was added prior to spinning down the plate at 1000 rpm for three minutes. Supernatants were removed and each well was re-suspended with 100 μL of DPBS+1% Formaldehyde. Samples were analyzed on the dual laser FACSCalibur flow cytometer (Becton Dickinson).
For orientation: Flow cytometry measures light scatter and fluorescence of single cells or particles in a stream.

A further experiment addresses T4, 293s-huOX40-muCRDII+III.
T4 construct: cell-surface chimera, named on the sheet by its cell line; also called human OX40 chimera with murine CRDII and CRDIII replacing human CRDII and CRDIII
T4 receptor chain: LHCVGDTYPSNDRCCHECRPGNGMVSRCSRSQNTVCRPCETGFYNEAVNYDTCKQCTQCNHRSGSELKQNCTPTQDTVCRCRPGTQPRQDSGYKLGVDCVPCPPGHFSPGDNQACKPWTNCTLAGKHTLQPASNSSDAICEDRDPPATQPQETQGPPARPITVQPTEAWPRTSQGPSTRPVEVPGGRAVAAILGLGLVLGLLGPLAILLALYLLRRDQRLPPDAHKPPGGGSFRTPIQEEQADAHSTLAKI
The experiment is described as above. On the procedure: as §1

The target in a further experiment is T5, 293s-huOX40-muCRDI.
T5 construct: cell-surface chimera, named on the sheet by its cell line; also called human OX40 chimera with murine CRDI replacing human CRDI
T5 receptor chain: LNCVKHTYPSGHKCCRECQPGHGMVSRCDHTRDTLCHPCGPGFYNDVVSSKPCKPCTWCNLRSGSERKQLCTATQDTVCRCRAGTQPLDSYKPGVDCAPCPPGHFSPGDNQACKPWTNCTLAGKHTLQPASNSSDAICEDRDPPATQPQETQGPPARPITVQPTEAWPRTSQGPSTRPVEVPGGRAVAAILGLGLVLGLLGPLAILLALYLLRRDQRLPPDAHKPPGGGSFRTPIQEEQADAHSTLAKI
Described as above. On the procedure: as §1

B1: Hu3738 (antibody, V domains shown)
VH: EVQLVESGGGLVQPGGSLRLSCAASGFTFSRYGMSWVRQAPGKGLELVATINSNGGRTYYPDSVKGRFTISRDNAKNSLYLQMNSLRAEDTAVYYCAREGITTAYAMDYWGQGTTVTVSS
VL: DIVMTQSPDSLAVSLGERATINCKASQSVDYDGDSYMHWYQQKPGQPPKLLIYAASILESGVPDRFSGSGSGTDFTLTISSLQAEDVAVYYCQQSNEDPRTFGGGTKVEIKR
notes: Humanized antibody; also called exemplary anti-OX40 antibody Hu3738; Hu3738 VH.1b / Hu3738 VL.1
In the case of B1, the EC50 in experiment [1] was determined as 44 pM; in the experiment with Cyno OX40-Fc fusion, 39 pM. The values for the binding result with 293s-huOX40-muCRDIII, in the experiment with 293s-huOX40-muCRDII+III and with 293s-huOX40-muCRDI were “binds”, “no binding (tested: 2 µg/mL)” and “binds”, respectively.
